In US20030190634:
Like-named read-outs stand apart in the source and are kept apart here.

Columns and labels:
[1] = target: Aquifex sp. DNA ligase (Aquifex sp.) (UniProt O66880); conditions: initial ligation rate, 65 C
[2] = target: T1, T4 DNA ligase (Enterobacteria phage T4?) (UniProt P00970); conditions: initial ligation rate, 0.5 nM enzyme, 37 C
T1 sequence: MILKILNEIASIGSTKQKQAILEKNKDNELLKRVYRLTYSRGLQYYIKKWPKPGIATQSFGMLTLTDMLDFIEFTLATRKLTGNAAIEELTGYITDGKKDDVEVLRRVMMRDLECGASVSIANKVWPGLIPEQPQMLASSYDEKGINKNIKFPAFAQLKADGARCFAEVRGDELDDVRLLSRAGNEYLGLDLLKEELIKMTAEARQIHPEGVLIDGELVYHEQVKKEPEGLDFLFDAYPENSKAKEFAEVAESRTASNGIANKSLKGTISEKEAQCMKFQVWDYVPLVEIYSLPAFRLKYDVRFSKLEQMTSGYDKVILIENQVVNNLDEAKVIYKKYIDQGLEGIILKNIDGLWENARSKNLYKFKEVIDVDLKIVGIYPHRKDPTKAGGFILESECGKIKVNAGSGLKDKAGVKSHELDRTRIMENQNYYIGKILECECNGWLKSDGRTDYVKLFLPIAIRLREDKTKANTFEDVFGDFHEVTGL

[3] = target: Thermus sp. AK16D DNA ligase (Thermus sp. AK16D) (UniProt Q9ZFY8); conditions: initial ligation rate, 65 C
Chain of Thermus sp. AK16D DNA ligase (Thermus sp. AK16D) (Q9ZFY8 whole entry): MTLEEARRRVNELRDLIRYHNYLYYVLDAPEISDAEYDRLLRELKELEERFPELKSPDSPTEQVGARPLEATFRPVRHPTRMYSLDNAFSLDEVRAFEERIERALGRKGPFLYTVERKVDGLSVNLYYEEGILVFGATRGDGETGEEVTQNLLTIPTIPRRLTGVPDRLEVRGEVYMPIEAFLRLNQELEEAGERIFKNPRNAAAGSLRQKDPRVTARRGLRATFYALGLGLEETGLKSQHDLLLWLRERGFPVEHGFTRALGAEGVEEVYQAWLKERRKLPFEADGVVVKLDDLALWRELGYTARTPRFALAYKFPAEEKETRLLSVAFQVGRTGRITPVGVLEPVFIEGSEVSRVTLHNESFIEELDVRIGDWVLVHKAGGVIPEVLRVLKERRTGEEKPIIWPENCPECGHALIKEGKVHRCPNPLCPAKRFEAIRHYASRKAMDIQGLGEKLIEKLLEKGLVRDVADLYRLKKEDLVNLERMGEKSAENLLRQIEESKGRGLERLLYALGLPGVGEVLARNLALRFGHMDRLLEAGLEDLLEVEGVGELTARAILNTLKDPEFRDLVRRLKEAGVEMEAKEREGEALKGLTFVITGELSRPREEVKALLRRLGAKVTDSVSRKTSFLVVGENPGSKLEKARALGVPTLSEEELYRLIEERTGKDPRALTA

[4] = target: Tth DNA ligase K294R K294R (Thermus thermophilus) (UniProt P26996); conditions: initial ligation rate, 65 C
Chain of Tth DNA ligase K294R K294R (Thermus thermophilus) (P26996 whole entry K294R): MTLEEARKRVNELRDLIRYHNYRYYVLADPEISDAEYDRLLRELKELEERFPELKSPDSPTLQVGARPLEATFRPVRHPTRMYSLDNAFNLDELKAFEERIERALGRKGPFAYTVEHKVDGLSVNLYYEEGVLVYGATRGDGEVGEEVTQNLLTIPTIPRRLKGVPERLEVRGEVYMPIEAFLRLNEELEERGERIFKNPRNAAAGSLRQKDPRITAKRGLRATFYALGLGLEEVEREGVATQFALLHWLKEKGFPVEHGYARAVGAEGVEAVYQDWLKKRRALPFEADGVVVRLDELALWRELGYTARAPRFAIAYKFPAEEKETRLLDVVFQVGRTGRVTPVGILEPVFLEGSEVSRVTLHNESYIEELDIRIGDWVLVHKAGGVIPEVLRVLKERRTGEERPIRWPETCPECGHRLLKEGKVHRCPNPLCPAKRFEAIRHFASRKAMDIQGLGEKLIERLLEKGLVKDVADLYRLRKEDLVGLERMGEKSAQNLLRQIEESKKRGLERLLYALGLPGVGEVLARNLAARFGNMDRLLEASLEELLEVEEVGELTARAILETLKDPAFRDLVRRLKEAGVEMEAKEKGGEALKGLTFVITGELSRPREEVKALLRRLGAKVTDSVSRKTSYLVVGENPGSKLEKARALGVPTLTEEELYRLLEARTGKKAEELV

[5] = target: Tth DNA ligase wild type (Thermus thermophilus) (UniProt P26996); conditions: initial ligation rate, 65 C
Chain of Tth DNA ligase wild type (Thermus thermophilus) (P26996 whole entry): as the sequence (P26996 whole entry K294R) above, with R294K counted along it

[6] = 12.5 nM enzyme, NAD+, 10 mM MgCl2

Chain of Aquifex sp. DNA ligase (Aquifex sp.) (O66880 whole entry): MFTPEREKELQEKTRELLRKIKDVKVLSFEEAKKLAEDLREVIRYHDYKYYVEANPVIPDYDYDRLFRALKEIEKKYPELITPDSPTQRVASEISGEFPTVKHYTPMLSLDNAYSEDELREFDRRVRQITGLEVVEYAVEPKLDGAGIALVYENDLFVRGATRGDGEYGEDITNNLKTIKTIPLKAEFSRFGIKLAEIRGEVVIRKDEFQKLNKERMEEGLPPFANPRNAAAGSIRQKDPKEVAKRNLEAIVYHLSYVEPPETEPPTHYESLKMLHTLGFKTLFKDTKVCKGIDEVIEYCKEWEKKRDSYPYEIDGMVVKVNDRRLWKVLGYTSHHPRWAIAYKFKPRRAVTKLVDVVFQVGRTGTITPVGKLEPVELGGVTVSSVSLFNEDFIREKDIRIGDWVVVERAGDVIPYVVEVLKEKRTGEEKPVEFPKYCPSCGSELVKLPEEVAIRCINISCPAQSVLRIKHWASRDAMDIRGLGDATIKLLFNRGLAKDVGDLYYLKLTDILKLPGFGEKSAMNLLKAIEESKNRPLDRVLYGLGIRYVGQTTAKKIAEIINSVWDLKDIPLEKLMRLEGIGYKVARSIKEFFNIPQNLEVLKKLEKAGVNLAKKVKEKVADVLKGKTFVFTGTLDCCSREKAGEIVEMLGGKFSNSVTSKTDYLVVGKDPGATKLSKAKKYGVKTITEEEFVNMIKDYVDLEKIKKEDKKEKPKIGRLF

In the case of nicked duplex, C-G match at 3'-end, the activity (fmol/ (time unit not given)) [1, 6] is reported as 99, the activity (fmol/ (time unit not given)) ([2]; 10 mM MgCl2, 12.5 nM substrate) is reported as 140 and the activity (fmol/ (time unit not given)) [3, 6] is reported as 130. For the same substance, the activity (fmol/ (time unit not given)) [4, 6] was 150 and the activity (fmol/ (time unit not given)) ([5]; 1.25 nM enzyme as printed, NAD+, 10 mM MgCl2) was 55.

Substance nicked duplex, T-G mismatch at 3'-end has an activity (fmol/ (time unit not given)) ([1]; fidelity 3500) of 0.029, an activity (fmol/ (time unit not given)) ([2]; fidelity 50) of 2.8 and an activity (fmol/ (time unit not given)) ([3]; fidelity 5200) of 0.025. For the same substance, the activity (fmol/ (time unit not given)) ([4]; fidelity 5300) was 0.029 and the activity (fmol/ (time unit not given)) ([5]; fidelity 840) was 0.065.

Substance “nicked duplex, T-G mismatch at penultimate 3'-end” has an activity (fmol/ (time unit not given)) ([1]; fidelity 380) of 0.26, an activity (fmol/ (time unit not given)) ([2]; fidelity 19) of 7.1 and an activity (fmol/ (time unit not given)) ([3]; fidelity 1100) of 0.12. For the same substance, the activity (fmol/ (time unit not given)) ([4]; fidelity 400) was 0.38 and the activity (fmol/ (time unit not given)) ([5]; fidelity 190) was 0.29.
